The target in this experiment is T1, T-cell protein tyrosine phosphatase, 45 kDa form (TC45) (UniProt P17706-2 1-387).
T1 sequence (looked up): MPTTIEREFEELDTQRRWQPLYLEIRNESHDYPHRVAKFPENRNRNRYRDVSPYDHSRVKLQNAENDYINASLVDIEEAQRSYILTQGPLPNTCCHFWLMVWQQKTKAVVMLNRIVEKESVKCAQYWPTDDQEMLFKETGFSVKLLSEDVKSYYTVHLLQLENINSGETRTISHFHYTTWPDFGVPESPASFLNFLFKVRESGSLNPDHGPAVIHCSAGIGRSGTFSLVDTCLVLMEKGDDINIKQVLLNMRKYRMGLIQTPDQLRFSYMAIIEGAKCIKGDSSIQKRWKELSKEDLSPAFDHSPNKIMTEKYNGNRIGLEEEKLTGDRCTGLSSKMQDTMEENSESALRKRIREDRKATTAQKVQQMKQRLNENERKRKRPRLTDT
Nature of the experiment: cell-based or functional assay.

With RPLKKKMEK [α1-cyt peptide (α1 cytoplasmic specific sequence lacking the conserved domain, RPLKKKMEK)], the “activation of recombinant TC45 in DiFMUP phosphatase assay by 10 μM α1-cyt peptide” value worked out at 2.4 fold.

These data come from article PMC2820462, “Inhibition of receptor tyrosine kinase signalling by small molecule agonist of T-cell protein tyrosine phosphatase” (BMC Cancer, 2010).
